T1: MinC^C/MinD complex (MalE-MinC^C with MinD on phospholipid vesicles) (E. coli, UniProt P18196 116-231; P0AEZ3 1-270)
T1 sequence (looked up) 1: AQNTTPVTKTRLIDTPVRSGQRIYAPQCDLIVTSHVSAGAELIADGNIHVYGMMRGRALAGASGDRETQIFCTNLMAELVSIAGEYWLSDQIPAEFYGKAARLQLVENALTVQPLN
T1 sequence (looked up) 2: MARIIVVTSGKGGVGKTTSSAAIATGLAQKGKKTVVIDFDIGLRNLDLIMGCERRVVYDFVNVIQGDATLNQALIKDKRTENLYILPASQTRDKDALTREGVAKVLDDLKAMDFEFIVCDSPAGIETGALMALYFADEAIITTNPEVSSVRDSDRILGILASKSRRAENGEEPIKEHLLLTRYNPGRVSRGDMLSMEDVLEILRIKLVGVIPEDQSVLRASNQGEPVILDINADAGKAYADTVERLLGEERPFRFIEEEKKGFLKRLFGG

T2: MinD (E. coli, UniProt P0AEZ3 1-270)
T2 sequence (looked up): T1 sequence (looked up) 2

B1: WT FtsZ (natural protein, E. coli, UniProt P0A9A6 1-383, looked up)
chain: MFEPMELTNDAVIKVIGVGGGGGNAVEHMVRERIEGVEFFAVNTDAQALRKTAVGQTIQIGSGITKGLGAGANPEVGRNAADEDRDALRAALEGADMVFIAAGMGGGTGTGAAPVVAEVAKDLGILTVAVVTKPFNFEGKKRMAFAEQGITELSKHVDSLITIPNDKLLKVLGRGISLLDAFGAANDVLKGAVQGIAELITRPGLMNVDFADVRTVMSEMGYAMMGSGVASGEDRAEEAAEMAISSPLLEDIDLSGARGVLVNITAGFDLRLDEFETVGNTIRAFASDNATVVIGTSLDPDMNDELRVTVVATGIGMDKRPEITLVTNKQVQQPVMDRYQQHGMAPLTQEQKPVAKVVNDNAPQTAKEPDYLDIPAFLRKQAD
B2: MalE-MinC^C (domain or fragment, E. coli, UniProt P18196 116-231, looked up)
chain: T1 sequence (looked up) 1

Key:
[1] = target: T1, MinC^C/MinD complex (MalE-MinC^C with …); assay: co-sedimentation
MinD = target: T2, MinD; assay: co-sedimentation

Row | Binder | binding result [1] | binding result (MinD)
1 | B1 | binds | 
2 | B2 |  | binds

— PMC2759774 (Molecular microbiology, 2009)
